To fix the notation:
T1: CD226 (human) (UniProt Q15762)
T1 sequence: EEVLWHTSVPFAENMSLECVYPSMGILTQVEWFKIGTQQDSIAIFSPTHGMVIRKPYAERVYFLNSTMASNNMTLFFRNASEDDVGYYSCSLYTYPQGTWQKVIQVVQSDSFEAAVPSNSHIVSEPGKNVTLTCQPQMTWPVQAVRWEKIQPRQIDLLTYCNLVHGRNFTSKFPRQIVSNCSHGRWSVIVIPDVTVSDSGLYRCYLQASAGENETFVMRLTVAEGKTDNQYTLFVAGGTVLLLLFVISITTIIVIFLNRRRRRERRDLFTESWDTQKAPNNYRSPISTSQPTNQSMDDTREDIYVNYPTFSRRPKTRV

T2: CD96 (UniProt P40200)
T2 sequence (looked up): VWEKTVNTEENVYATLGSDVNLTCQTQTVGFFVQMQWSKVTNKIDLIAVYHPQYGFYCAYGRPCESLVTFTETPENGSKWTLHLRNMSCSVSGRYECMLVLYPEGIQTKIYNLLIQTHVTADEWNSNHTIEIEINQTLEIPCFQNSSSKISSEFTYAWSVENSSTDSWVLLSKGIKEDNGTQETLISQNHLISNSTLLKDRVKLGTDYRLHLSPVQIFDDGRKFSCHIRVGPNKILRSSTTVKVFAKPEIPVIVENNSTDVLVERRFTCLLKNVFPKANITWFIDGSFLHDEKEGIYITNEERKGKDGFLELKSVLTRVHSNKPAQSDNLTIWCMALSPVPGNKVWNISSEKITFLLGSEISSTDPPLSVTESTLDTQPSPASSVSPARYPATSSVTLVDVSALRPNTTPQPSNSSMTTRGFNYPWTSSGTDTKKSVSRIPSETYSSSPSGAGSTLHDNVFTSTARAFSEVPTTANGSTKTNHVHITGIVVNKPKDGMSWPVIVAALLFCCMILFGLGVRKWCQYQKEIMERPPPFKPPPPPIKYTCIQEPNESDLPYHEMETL

B1: CD155 variant IgV-Fc P18T, D23G, S24A, N35D, H49L, L79P, F91S, L104M, G111R (Fc fusion, not shown: a dimerising Fc or GST; small tags and cut ends)
chain: PGTGDVVVQAPTQVTGFLGGAVTLPCYLQVPDMEVTHVSQLTWARLGESGSMAVFHQTQGPSYSESKRLEFVAARPGAELRNASLRMSGLRVEDEGNYTCMFVTFPQRSRSVDIWL
B2: CD155 variant IgV-Fc P18F, S65A, S67V, F91S, L104M, G111R (Fc fusion, not shown: a dimerising Fc or GST; small tags and cut ends)
chain: WPPPGTGDVVVQAPTQVFGFLGDSVTLPCYLQVPNMEVTHVSQLTWARHGESGSMAVFHQTQGPAYVESKRLEFVAARLGAELRNASLRMSGLRVEDEGNYTCMFVTFPQRSRSVDIWL
B3: CD155 variant IgV-Fc P18F, L79P, M90L, F91S, V95A, L104M, G111R (Fc fusion, not shown: a dimerising Fc or GST; small tags and cut ends)
chain: B2 chain with A65S, V67S, L79P, M90L, V95A
B4: CD155 variant IgV-Fc V9I, P18T, D23G, L79P, F91S, G111R (Fc fusion, not shown: a dimerising Fc or GST; small tags and cut ends)
chain: B2 chain with V9I, F18T, D23G, A65S, V67S, L79P, M104L
B5: CD155 variant IgV-Fc P18C, T26M, L44V, M55I, Q62K, L79P, F91S, L104M, T107M (Fc fusion, not shown: a dimerising Fc or GST; small tags and cut ends)
chain: B2 chain with F18C, T26M, L44V, M55I, Q62K, A65S, V67S, L79P, T107M, R111G
B6: CD155 variant IgV-Fc V9L, P18L, L79P, M90I, F91S, T102S, L104M, G111R (Fc fusion, not shown: a dimerising Fc or GST; small tags and cut ends)
chain: B2 chain with V9L, F18L, A65S, V67S, L79P, M90I, T102S
B7: CD155 L44P IgV-Fc (Fc fusion, not shown: a dimerising Fc or GST; small tags and cut ends)
chain: B1 chain with T15P, G20D, A21S, D32N, L41P, L46H, P76L, S88F, M101L, R108G
B8: CD155 A56V IgV-Fc (Fc fusion, not shown: a dimerising Fc or GST; small tags and cut ends)
chain: B1 chain with T15P, G20D, A21S, D32N, L46H, A53V, P76L, S88F, M101L, R108G
B9: CD155 P18S, F91S, L104P IgV-Fc (Fc fusion, not shown: a dimerising Fc or GST; small tags and cut ends)
chain: B1 chain with T15S, G20D, A21S, D32N, L46H, P76L, M101P, R108G
B10: CD155 P18T, F91S IgV-Fc (Fc fusion, not shown: a dimerising Fc or GST; small tags and cut ends)
chain: B1 chain with G20D, A21S, D32N, L46H, P76L, M101L, R108G
B11: CD155 P18S, P64S, F91S IgV-Fc (Fc fusion, not shown: a dimerising Fc or GST; small tags and cut ends)
chain: B1 chain with T15S, G20D, A21S, D32N, L46H, P61S, P76L, M101L, R108G
B12: CD155 P18T, F91S, G111D IgV-Fc (Fc fusion, not shown: a dimerising Fc or GST; small tags and cut ends)
chain: B1 chain with G20D, A21S, D32N, L46H, P76L, M101L, R108D
B13: CD155 P18T, S42P, F91S IgV-Fc (Fc fusion, not shown: a dimerising Fc or GST; small tags and cut ends)
chain: B1 chain with G20D, A21S, D32N, S39P, L46H, P76L, M101L, R108G
B14: variant PD-L2 IgV-Fc H15Q, Q72H, Q74R, R76G, I86T (Fc fusion, not shown: a dimerising Fc or GST; small tags and cut ends)
chain: FTVTVPKELYIIEQGSNVTLECNFDTGSHVNLGAITASLQKVENDTSPHRERATLLEEQLPLGKASFHIPHVRVGDEGQYQCIITYGVAWDYKYLTLK
B15: variant PD-L2 IgV-Fc I13V, H15Q, T47A, Q82R, V89D (SEQ ID NO 1544) (Fc fusion, not shown: a dimerising Fc or GST; small tags and cut ends)
chain: B14 chain with I12V, T46A, H71Q, R73Q, G75R, Q81R, T85I, V88D
B16: variant PD-L2 IgV-Fc I13V, H15Q, S39I, E44D, S67L (Fc fusion, not shown: a dimerising Fc or GST; small tags and cut ends)
chain: B14 chain with I12V, S38I, E43D, S66L, H71Q, R73Q, G75R, T85I
B17: variant PD-L2 IgV-Fc I12V, I13V, H15Q, T47A, Q82R, V89D (Fc fusion, not shown: a dimerising Fc or GST; small tags and cut ends)
chain: B14 chain with I11V, I12V, T46A, H71Q, R73Q, G75R, Q81R, T85I, V88D
B18: variant PD-L2 IgV-Fc H15Q, V89D (Fc fusion, not shown: a dimerising Fc or GST; small tags and cut ends)
chain: B14 chain with H71Q, R73Q, G75R, T85I, V88D
B19: variant PD-L2 IgV-Fc E44D, S67L, Q72H, Q82R, V89D (Fc fusion, not shown: a dimerising Fc or GST; small tags and cut ends)
chain: B14 chain with Q14H, E43D, S66L, R73Q, G75R, Q81R, T85I, V88D
B20: variant PD-L2 IgV-Fc H15Q, V31M, S67L, Q82R, V89D (Fc fusion, not shown: a dimerising Fc or GST; small tags and cut ends)
chain: B14 chain with V30M, S66L, H71Q, R73Q, G75R, Q81R, T85I, V88D
B21: variant PD-L2 IgV-Fc I13V, H15Q, Q82R, V89D (Fc fusion, not shown: a dimerising Fc or GST; small tags and cut ends)
chain: B14 chain with I12V, H71Q, R73Q, G75R, Q81R, T85I, V88D
B22: variant PD-L2 IgV-Fc I13V, H15Q, T47A, Q82R (Fc fusion, not shown: a dimerising Fc or GST; small tags and cut ends)
chain: B14 chain with I12V, T46A, H71Q, R73Q, G75R, Q81R, T85I
B23: variant PD-L2 IgV-Fc I13V, H15Q, V31A, N45S, Q82R, V89D (Fc fusion, not shown: a dimerising Fc or GST; small tags and cut ends)
chain: B14 chain with I12V, V30A, N44S, H71Q, R73Q, G75R, Q81R, T85I, V88D
B24: variant PD-L2 IgV-Fc H15Q, T47A (Fc fusion, not shown: a dimerising Fc or GST; small tags and cut ends)
chain: B14 chain with T46A, H71Q, R73Q, G75R, T85I
B25: variant PD-L2 IgV-Fc I13V, S67L, Q82R, V89D (Fc fusion, not shown: a dimerising Fc or GST; small tags and cut ends)
chain: B14 chain with I12V, Q14H, S66L, H71Q, R73Q, G75R, Q81R, T85I, V88D
B26: variant PD-L2 IgV-Fc I13V, H15Q, T47A, H69L, R76G, V89D (Fc fusion, not shown: a dimerising Fc or GST; small tags and cut ends)
chain: B14 chain with I12V, T46A, H68L, H71Q, R73Q, T85I, V88D
B27: variant PD-L2 IgV-Fc H15Q, T47A, H69L, Q82R, V89D (Fc fusion, not shown: a dimerising Fc or GST; small tags and cut ends)
chain: B14 chain with T46A, H68L, H71Q, R73Q, G75R, Q81R, T85I, V88D
B28: variant PD-L2 IgV-Fc I13V, H15Q, R76G, D77N, Q82R, V89D (Fc fusion, not shown: a dimerising Fc or GST; small tags and cut ends)
chain: B14 chain with I12V, H71Q, R73Q, D76N, Q81R, T85I, V88D
B29: variant PD-L2 IgV-Fc I13V, H15Q, Q82R (Fc fusion, not shown: a dimerising Fc or GST; small tags and cut ends)
chain: B14 chain with I12V, H71Q, R73Q, G75R, Q81R, T85I
B30: variant PD-L2 IgV-Fc G28V, Q72H, R76G, I86T (Fc fusion, not shown: a dimerising Fc or GST; small tags and cut ends)
chain: B14 chain with Q14H, G27V, R73Q
B31: variant PD-L2 IgV-Fc I13V, H15Q, V89D (Fc fusion, not shown: a dimerising Fc or GST; small tags and cut ends)
chain: B14 chain with I12V, H71Q, R73Q, G75R, T85I, V88D

From patent publication US20200040059A1 come the findings set out here.

Positions count from the first letter of the chain named. Names may count otherwise. “And” between values parts separate entries of the source, which are not always exact repeats. Identical values can stand only once.

The target of the first experiment is T1, CD226 (human). Briefly: flow cytometry, CD226-expressing cells. In general terms: Flow cytometry measures light scatter and fluorescence of single cells or particles in a stream.
Take B1: the MFI at 11.1 nM amounted to 987 MFI.
On to B2, for which the Fold Change from CD155-ECD turned out to be 0.06 fold and the MFI at 11.1 nM was found to be 901 MFI.
Regarding B3, the Fold Change from CD155-ECD was 0.06 fold and 0.07 fold; the MFI at 11.1 nM was 917 MFI and 1070 MFI.
Regarding B4, the Fold Change from CD155-ECD was 0.06 fold and the MFI at 11.1 nM was 897 MFI.
For B5, in that order: 0.06 fold and 973 MFI.
For B6 the same measures were 0.06 fold and 910 MFI.

The next experiment has as its target T2, CD96. Briefly: flow cytometry, cells.
Regarding B7, the MFI came to 152000.
The molecule B8 had an MFI of 161000.
Still for that read-out and setting: under B9 stands 10900.
Same read-out and setting: the same measure for B10: 158000; for B11: 140000.
The same measure, in the same setting: the same measure for B12: 168000.
As for B13, the MFI is 135000.

The next experiment deals with PD-1 (Homo sapiens (Human)) (UniProt Q15116). Briefly: flow cytometry, Jurkat/PD-1 cells.
PD-1 (Homo sapiens (Human)), sequence (Q15116 21-288 limits assumed): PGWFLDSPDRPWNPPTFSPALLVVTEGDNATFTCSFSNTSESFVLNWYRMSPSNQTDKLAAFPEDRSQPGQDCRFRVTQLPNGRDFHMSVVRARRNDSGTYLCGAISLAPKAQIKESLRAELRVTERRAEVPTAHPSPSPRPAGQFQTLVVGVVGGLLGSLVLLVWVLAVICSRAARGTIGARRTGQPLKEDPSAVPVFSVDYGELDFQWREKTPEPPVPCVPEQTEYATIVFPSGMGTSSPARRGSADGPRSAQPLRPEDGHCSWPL
Take B14: the MFI at 50 nM came to 4050.
On the same count and under the same terms, the same measure for B15: 63300; for B16: 63500; for B17: 61200.
On the same count and under the same terms, the same measure for B18: 17700; for B19: 51500; for B20: 67400.
Still for that read-out and setting: the same measure for B21: 49500; for B22: 89100; for B23: 68000.
B24 yielded an MFI at 50 nM of 26600.
Same read-out and setting: the same measure for B25: 59000; for B26: 54300.
The same measure, in the same setting: the same measure for B27: 65600; for B28: 33100; for B29: 76100.
Still for that read-out and setting: the same measure for B30: 5560; for B31: 28700.

For the next experiment, the target named is T1, CD226 (human). Briefly: flow cytometry, transfected cells.
Molecule B7 came in with an MFI of 581000.
Same read-out and setting: the same measure for B8: 455000; for B9: 26200; for B10: 401000.
On the same count and under the same terms, the same measure for B11: 498000.
On the same count and under the same terms, the same measure for B12: 438000.
In the case of B13, the MFI worked out at 554000.

Another experiment has as its target PD-1 (Homo sapiens (Human)) (UniProt Q15116). Description: flow cytometry, Jurkat/PD-1 cells; vs wildtype PD-L2 IgV-Fc.
As for B14, the Fold increase over wildtype PD-L2 IgV-Fc stood at 0.41 fold.
As for B15, the Fold increase over wildtype PD-L2 IgV-Fc amounted to 6.43 fold.
The same measure, in the same setting: under B16 stands 6.45 fold; under B17, 6.22 fold.
Consider B18, for which the Fold increase over wildtype PD-L2 IgV-Fc was determined as 1.8 fold.
Still for that read-out and setting: under B19 stands 5.23 fold; under B20, 6.85 fold.
Still for that read-out and setting: under B21 stands 5.03 fold.
On the same count and under the same terms, the same measure for B22: 9.05 fold; for B23: 6.91 fold; for B24: 2.7 fold.
Take B25: the Fold increase over wildtype PD-L2 IgV-Fc was 5.99 fold.
On the same count and under the same terms, the same measure for B26: 5.52 fold; for B27: 6.66 fold.
On the same count and under the same terms, under B28 stands 3.36 fold; under B29, 7.74 fold; under B30, 0.57 fold.
The same measure, in the same setting: the same measure for B31: 2.92 fold.
